The record followed here is the supplement of paper PMC11246515.

± gives the standard deviation of the averaged measurements. Some results are limits rather than exact numbers.

The series in a line: total protein half-life in vivo (active degradation + dilution); higher = more stable protein.
Where [1] appears, read: E. coli NCM3722 delta-clpP delta-lon delta-hslV, growth: N-lim chemostat, doubling time 6 h.
The mark [2] stands for this setting: E. coli NCM3722 delta-clpP, growth: N-lim chemostat, doubling time 6 h.
Where [3] appears, read: E. coli NCM3722 delta-hslV, growth: N-lim chemostat, doubling time 6 h.
Where [4] appears, read: E. coli NCM3722 delta-lon, growth: N-lim chemostat, doubling time 6 h.
Setting [5] is: E. coli NCM3722 delta-smpB, growth: N-lim chemostat, doubling time 6 h.
Where [6] appears, read: wild type E. coli NCM3722, growth: C-lim chemostat, doubling time 3 h.
[7] abbreviates: wild type E. coli NCM3722, growth: C-lim chemostat, doubling time 6 h.
[8] abbreviates: wild type E. coli NCM3722, growth: C-lim chemostat, doubling time 12 h.
Setting [9] is: wild type E. coli NCM3722, growth: N-lim chemostat, doubling time 6 h.
The mark [10] stands for this setting: wild type E. coli NCM3722, growth: N-lim chemostat, doubling time 12 h.
[11] abbreviates: wild type E. coli NCM3722, growth: P-lim chemostat, doubling time 6 h.
[12] abbreviates: wild type E. coli NCM3722, growth: P-lim chemostat, doubling time 12 h.

With “MYEALLVVFLIVAIGLVGLIMLQQGKGADMGASFGAGASATLFGSSGSGNFMTRMTALLATLFFIISLVLGNINSNKTNKGSEWENLSAPAKTEQTQPAAPAKPTSDIPN [P0AG99]”, the “total protein half-life in vivo” value came out at 3.64 ± 0.31 h under setting [1]; 3.46 ± 0.55 h under setting [2]; 3.996 ± 0.032 h under setting [3]; 4.58 ± 0.069 h under setting [4]; 3.78 ± 0.13 h under setting [5]; 2.33 ± 0.097 h under setting [6]. The “total protein half-life in vivo” value worked out at 4.91 ± 1.3 h under setting [7]; 6.22 ± 0.14 h under setting [8]; 3.81 ± 0.04 h under setting [9]; 4.95 h under setting [10]; 3.41 ± 0.17 h under setting [11]; 6.12 ± 0.75 h under setting [12].

In the case of “MKRLIMATMVTAILASSTVWAADNAPVAAQQQTQQVQQTQKTAAAAERISEQGLYAMRDVQVARLALFHGDPEKAKELTNEASALLSDDSTEWAKFAKPGKKTNLNDDQYIVINASVGISESYVATPEKEAAIKIANEKMAKGDKKGAMEELRLAGVGVMENQYLMPLKQTRNALADAQKLLDKKQYYEANLALKGAEDGIIVDSEALFVN”, the “total protein half-life in vivo” value under setting [11] was found to be 4.05 h.

Regarding “MKKSITTLDLNLLLCLQLLMQERSVTKAAKRINVTPSAVSKSLAKLRAWFDDPLFVNSPLGLSPTPLMVSMEQNLAEWMQMSNLLLDKPHHQTPRGLKFELAAESPLMMIMLNALSKQIYQRYPQATIKLRNWDYDSLDAITRGEVDIGFSGRESHPRSRELLSSLPLAIDYEVLFSDVPCVWLRKDHPALHQTWNLDTFLRYPHISICWEQSDTWALDNVLQELGRERTIAMSLPEFEQSLFMAAQPDNLLLATAPRYCQYYNQLHQLPLVALPLPFDESQQKKLEVPFTLLWHKRNSHNPKIVWLRETIKNLYASMA”, the “total protein half-life in vivo” value under setting [1] came out at 5.87 ± 0.7 h; the “total protein half-life in vivo” value under setting [2] came to 5.16 ± 1 h; the “total protein half-life in vivo” value under setting [3] was 5.91 ± 0.94 h; the “total protein half-life in vivo” value under setting [4] was 6.37 ± 0.5 h; the “total protein half-life in vivo” value under setting [5] is 4.519 ± 0.029 h; the “total protein half-life in vivo” value under setting [9] amounted to 4.74 h. Further, the “total protein half-life in vivo” value reads like this: under setting [10], 12.2 h; under setting [12], 11.2 ± 0.6 h.

As for “MGSTSSLYAAIDLGSNSFHMLVVREVAGSIQTLTRIKRKVRLAAGLNSENALSNEAMERGWQCLRLFAERLQDIPPSQIRVVATATLRLAVNAGDFIAKAQEILGCPVQVISGEEEARLIYQGVAHTTGGADQRLVVDIGGASTELVTGTGAQTTSLFSLSMGCVTWLERYFADRNLGQENFDAAEKAAREVLRPVADELRYHGWKVCVGASGTVQALQEIMMAQGMDERITLEKLQQLKQRAIHCGRLEELEIDGLTLERALVFPSGLAILIAIFTELNIQCMTLAGGALREGLVYGMLHLAVEQDIRSRTLRNIQRRFMIDIDQAQRVAKVAANFFDQVENEWHLEAISRDLLISACQLHEIGLSVDFKQAPQHAAYLVRNLDLPGFTPAQKKLLATLLLNQTNPVDLSSLHQQNAVPPRVAEQLCRLLRLAIIFASRRRDDLVPEMTLQANHELLTLTLPQGWLTQHPLGKEIIAQESQWQSYVHWPLEVH”, the “total protein half-life in vivo” value reads like this: under setting [1], 4.11 ± 0.81 h; under setting [2], 3.91 ± 0.1 h; under setting [3], 3.77 ± 0.53 h; under setting [4], 3.75 ± 0.87 h; under setting [5], 3.64 ± 0.35 h; under setting [6], 2.92 ± 0.24 h. The “total protein half-life in vivo” value under setting [7] stood at 5.11 ± 0.2 h; the “total protein half-life in vivo” value under setting [8] is 9.31 ± 0.75 h; the “total protein half-life in vivo” value under setting [9] came out at 3.94 ± 0.33 h; the “total protein half-life in vivo” value under setting [10] came out at 5.6 ± 0.23 h; the “total protein half-life in vivo” value under setting [11] was determined as 5.28 ± 1 h; the “total protein half-life in vivo” value under setting [12] is 11.3 ± 0.41 h.

With “MLQHYSVSWKKGLAALCLLAVAGLSGCDQQENAAAKVEYDGLSNSQPLRVDANNHTVTMLVQINGRFLTDDTRHGIVFKDGSNGHKSLFMGYATPKAFYEALKEAGGTPGENMTMDNKETTHVTGSKLDISVNWQGAAKAYSFDEVIVDSNGKKLDMRFGGNLTAAEEKKTGCLVCLDSCPVGIVSNATYTYGAVEKRGEVKFKGNASVLPADNTLATVTFKIAE”, the “total protein half-life in vivo” value under setting [1] worked out at 5.59 ± 0.95 h; the “total protein half-life in vivo” value under setting [2] was found to be 6.08 ± 0.12 h; the “total protein half-life in vivo” value under setting [3] stood at 6.34 ± 0.64 h; the “total protein half-life in vivo” value under setting [4] was 6.31 ± 0.53 h; the “total protein half-life in vivo” value under setting [5] came out at 6.66 ± 0.39 h; the “total protein half-life in vivo” value under setting [6] is 2.87 ± 0.32 h. The “total protein half-life in vivo” value under setting [7] stood at 6.91 ± 0.16 h; the “total protein half-life in vivo” value under setting [9] was 6.55 ± 0.35 h; the “total protein half-life in vivo” value under setting [10] stood at 12.4 ± 0.69 h; the “total protein half-life in vivo” value under setting [11] came out at 4.96 ± 0.71 h; the “total protein half-life in vivo” value under setting [12] came out at 14.84 ± 0.069 h.

On to “MISTVALFWALCVVCIVNMARYFSSLRALLVVLRNCDPLLYQYVDGGGFFTSHGQPNKQVRLVWYIYAQRYRDHHDDEFIRRCERVRRQFILTSALCGLVVVSLIALMIWH [P0A8S5]”, for which the “total protein half-life in vivo” value was 0.94 h under setting [1], 0.778 h under setting [2], 0.797 h under setting [6] and more than 8 h under setting [7].

For the sequence “MRWILFILFCLLGAPAHAVSIPGVTTTTTTDSTTEPAPEPDIEQKKAAYGALADVLDNDTSRKELIDQLRTVAATPPAEPVPKIVPPTLVEEQTVLQKVTEVSRHYGEALSARFGQLYRNITGSPHKPFNPQTFSNALTHFSMLAVLVFGFYWLIRLCALPLYRKMGQWARQKNRERSNWLQLPAMIIGAFIIDLLLLALTLFVGQVLSDNLNAGSRTIAFQQSLFLNAFALIEFFKAVLRLIFCPNVAELRPFTIQDESARYWSRRLSWLSSLIGYGLIVAVPIISNQVNVQIGALANVIIMLCMTVWALYLIFRNKKEITQHLLNFAEHSLAFFSLFIRAFALVWHWLASAYFIVLFFFSLFDPGNSLKFMMGATVRSLAIIGIAAFVSGMFSRWLAKTITLSPHTQRNYPELQKRLNGWLSAALKTARILTVCVAVMLLLSAWGLFDFWNWLQNGAGQKTVDILIRIALILFFSAVGWTVLASLIENRLASDIHGRPLPSARTRTLLTLFRNALAVIISTITIMIVLSEIGVNIAPLLAGAGALGLAISFGSQTLVKDIITGVFIQFENGMNTGDLVTIGPLTGTVERMSIRSVGVRQDTGAYHIIPWSSITTFANFVRGIGSVVANYDVDRHEDADKANQALKDAVAELMENEEIRGLIIGEPNFAGIVGLSNTAFTLRVSFTTLPLKQWTVRFALDSQVKKHFDLAGVRAPVQTYQVLPAPGATPAEPLPPGEPTL”, the “total protein half-life in vivo” value was determined as 4.93 ± 1 h under setting [1]; 6.1 ± 0.28 h under setting [2]; 5.15 ± 0.43 h under setting [4]; 2.55 ± 2 h under setting [7]; 6.41 ± 4.3 h under setting [8]; 4.92 h under setting [9]. The “total protein half-life in vivo” value runs as follows: under setting [10], 9.64 ± 0.63 h; under setting [11], 6.83 ± 0.65 h; under setting [12], 13 ± 1.4 h.

Consider “MQTFQADLAIVGAGGAGLRAAIAAAQANPNAKIALISKVYPMRSHTVAAEGGSAAVAQDHDSFEYHFHDTVAGGDWLCEQDVVDYFVHHCPTEMTQLELWGCPWSRRPDGSVNVRRFGGMKIERTWFAADKTGFHMLHTLFQTSLQFPQIQRFDEHFVLDILVDDGHVRGLVAMNMMEGTLVQIRANAVVMATGGAGRVYRYNTNGGIVTGDGMGMALSHGVPLRDMEFVQYHPTGLPGSGILMTEGCRGEGGILVNKNGYRYLQDYGMGPETPLGEPKNKYMELGPRDKVSQAFWHEWRKGNTISTPRGDVVYLDLRHLGEKKLHERLPFICELAKAYVGVDPVKEPIPVRPTAHYTMGGIETDQNCETRIKGLFAVGECSSVGLHGANRLGSNSLAELVVFGRLAGEQATERAATAGNGNEAAIEAQAAGVEQRLKDLVNQDGGENWAKIRDEMGLAMEEGCGIYRTPELMQKTIDKLAELQERFKRVRITDTSSVFNTDLLYTIELGHGLNVAECMAHSAMARKESRGAHQRLDEGCTERDDVNFLKHTLAFRDADGTTRLEYSDVKITTLPPAKRVYGGEADAADKAEAANKKEKANG”, for which the “total protein half-life in vivo” value under setting [1] is 5.99 ± 0.19 h; the “total protein half-life in vivo” value under setting [2] worked out at 5.68 ± 0.083 h; the “total protein half-life in vivo” value under setting [3] worked out at 6.59 ± 0.5 h; the “total protein half-life in vivo” value under setting [4] stood at 6.24 ± 0.66 h; the “total protein half-life in vivo” value under setting [5] stood at 5.45 ± 0.11 h; the “total protein half-life in vivo” value under setting [6] was 2.97 ± 0.033 h. For the same sequence, the “total protein half-life in vivo” value came to 6.38 ± 0.42 h under setting [7]; 12.1 ± 1.9 h under setting [8]; 6.2 ± 0.28 h under setting [9]; 11.3 ± 1.7 h under setting [10]; 6.03 ± 0.064 h under setting [11]; 13.4 ± 0.38 h under setting [12].
